Experimental data: patent US20140363428A1

Key:
human IgE (human) [1] = assay: SPR Biacore T200, 37 C; ratio of KD, pH/Ca dependency
human IgE (human) [2] = assay: SPR Biacore T200, 37 C; pH 5.8, […] Ca
human IgE (human) [3] = assay: SPR Biacore T200, 37 C; ratio of KD, pH dependency
human IgE (human) [4] = assay: SPR Biacore T200, 37 C; pH 5.8, 3 microM Ca
human IgE (human) [5] = assay: SPR Biacore T200, 37 C; pH 7.4, […] Ca

human IgE (human), sequence (heavy, as listed by the source, chain 1 of 2, other chains not shown): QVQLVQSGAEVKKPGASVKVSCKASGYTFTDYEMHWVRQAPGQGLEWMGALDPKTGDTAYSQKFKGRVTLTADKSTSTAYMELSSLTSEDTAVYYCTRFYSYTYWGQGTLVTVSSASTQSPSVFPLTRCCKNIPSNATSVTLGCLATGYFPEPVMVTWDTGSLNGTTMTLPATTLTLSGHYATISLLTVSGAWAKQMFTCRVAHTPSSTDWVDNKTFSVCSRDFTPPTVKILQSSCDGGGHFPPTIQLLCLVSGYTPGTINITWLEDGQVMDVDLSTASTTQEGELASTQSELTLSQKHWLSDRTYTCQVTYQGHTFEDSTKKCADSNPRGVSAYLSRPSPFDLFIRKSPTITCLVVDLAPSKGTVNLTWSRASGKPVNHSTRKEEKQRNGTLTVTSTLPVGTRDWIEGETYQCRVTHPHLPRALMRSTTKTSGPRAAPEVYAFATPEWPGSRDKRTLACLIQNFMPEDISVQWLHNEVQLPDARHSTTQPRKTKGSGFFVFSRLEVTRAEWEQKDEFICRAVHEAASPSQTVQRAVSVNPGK

“Xolair (omalizumab; Novartis) (antibody)” was tested. Which KD (pH 5.8, 3 microM Ca)/KD (pH 7.4, 1.2 mM Ca) (human IgE (human) [1]) did it give?
The KD (pH 5.8, 3 microM Ca)/KD (pH 7.4, 1.2 mM Ca) was 2.9.

What about the Kd (human IgE (human) [2]) of the same substance?
The Kd was 9.9 nM.

And the koff (human IgE (human) [2])?
The koff was 0.024 s⁻¹.

And the kon (human IgE (human) [2])?
The kon was 2.4e+06 M⁻¹ s⁻¹.

And the KD (pH 5.8, 1.2 mM Ca)/KD (pH 7.4, 1.2 mM Ca) (human IgE (human) [3])?
Its KD (pH 5.8, 1.2 mM Ca)/KD (pH 7.4, 1.2 mM Ca) is 2.3.

What about the Kd (human IgE (human) [4]) of the same substance?
The Kd was 13 nM.

What about the koff (human IgE (human) [4]) of the same substance?
The koff was 0.017 s⁻¹.

What about the kon (human IgE (human) [4]) of the same substance?
Its kon is 1.4e+06 M⁻¹ s⁻¹.

What about the Kd (human IgE (human) [5]) of the same substance?
The Kd was 4.4 nM.

And the koff (human IgE (human) [5])?
The koff was 0.011 s⁻¹.

And the kon (human IgE (human) [5])?
Its kon is 2.5e+06 M⁻¹ s⁻¹.
